Laboratory results from patent publication US20240181007A1, “COMPOSITIONS AND METHODS FOR TREATING PULMONARY HYPERTENSION” (Acceleron Pharma Inc., priority 2021, published 2024).

Assays:
[1] = molecular target: T1, Activin B (Homo sapiens, UniProt P09529); assay: Biacore-based binding assay (surface plasmon resonance), activin B; conditions: SPR 37° C.; compared to ActRIIB-G1Fc / ActRIIB-Fc homodimer
T1 sequence (P09529 293-407): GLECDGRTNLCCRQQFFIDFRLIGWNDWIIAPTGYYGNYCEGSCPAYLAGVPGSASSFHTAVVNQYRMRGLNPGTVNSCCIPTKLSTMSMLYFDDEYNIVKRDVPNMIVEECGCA
Description: (§1) To determine ligand binding profiles of variant ActRIIB-Fc homodimers, a Biacore™-based binding assay was used to compare ligand binding kinetics of certain variant ActRIIB-Fc polypeptides. ActRIIB-Fc polypeptides to be tested were independently captured onto the system using an anti-Fc antibody. Ligands were then injected and allowed to flow over the captured receptor protein. ActRIIB-G1Fc was used as the control polypeptide.
(§2) A Biacore™-based binding assay was used to compare the ligand binding kinetics of an ActRIIB-Fc:ActRIIB(L79E)-Fc heterodimer with those of unmodified ActRIIB-Fc homodimer. Fusion proteins were captured onto the system using an anti-Fc antibody. Ligands were then injected and allowed to flow over the captured receptor protein at 37° C. Results are summarized in the table below, in which ligand off-rates (kd) most indicative of effective ligand traps are denoted in bold.

[2] = molecular target: T2, GDF8 (Homo sapiens, UniProt O14793); assay: Biacore-based binding assay (surface plasmon resonance), GDF8; conditions: SPR 37° C.; compared to ActRIIB-G1Fc / ActRIIB-Fc homodimer
T2 sequence (O14793 267-375): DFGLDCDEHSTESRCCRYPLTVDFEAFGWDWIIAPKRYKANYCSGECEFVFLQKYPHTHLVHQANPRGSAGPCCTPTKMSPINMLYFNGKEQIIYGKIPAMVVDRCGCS
Description: as §1, §2

[3] = molecular target: T3, GDF11 (Homo sapiens, UniProt O95390); assay: Biacore-based binding assay (surface plasmon resonance), GDF11; conditions: SPR 37° C.; compared to ActRIIB-G1Fc / ActRIIB-Fc homodimer
T3 sequence (O95390 299-407): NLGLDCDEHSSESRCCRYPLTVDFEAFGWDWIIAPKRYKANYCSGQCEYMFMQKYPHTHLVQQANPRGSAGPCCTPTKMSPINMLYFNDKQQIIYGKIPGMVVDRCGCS
Description: as §1
(§3) To determine ligand binding profiles of variant ActRIIB-Fc homodimers, a Biacore™-based binding assay was used to compare ligand binding kinetics of certain variant ActRIIB-Fc polypeptides. ActRIIB-Fc polypeptides to be tested were independently captured onto the system using an anti-Fc antibody. Ligands were then injected and allowed to flow over the captured receptor protein.
as §2

[4] = molecular target: T4, BMP9 (Homo sapiens, UniProt Q9UK05); assay: Biacore-based binding assay (surface plasmon resonance), BMP9; conditions: SPR 37° C.; for binding to BMP9 compared to unmodified ActRIIB-Fc (in words): compared to ActRIIB-G1Fc / ActRIIB-Fc homodimer; for reduction in affinity for BMP9 compared with reduction in affinity for GDF11 or activin A: FIG. 9, compared to Fc fusion with unmodified ActRIIB extracellular domain
T4 sequence (Q9UK05 320-429): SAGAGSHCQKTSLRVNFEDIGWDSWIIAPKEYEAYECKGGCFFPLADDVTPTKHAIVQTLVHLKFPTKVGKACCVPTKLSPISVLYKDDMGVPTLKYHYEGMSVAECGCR
Description: as §1, §3, §2

[5] = molecular target: T3, GDF11; assay: A204 cell-based pGL3(CAGA)12 reporter gene assay, signaling by GDF11; conditions: A204 reporter gene assay
Description: (§4) To determine activity of variant ActRIIB-Fc polypeptides, an A204 cell-based assay was used to compare effects among variant ActRIIB-Fc polypeptides on signaling by activin A, activin B, GDF8, GDF11, BMP9, and BMP10, in comparison to ActRIIB-G1Fc. In brief, this assay uses a human A204 rhabdomyosarcoma cell line (ATCC®: HTB-82™) derived from muscle and the reporter vector pGL3(CAGA)12 (Dennler et al., 1998, EMBO 17: 3091-3100) as well as a Renilla reporter plasmid (pRLCMV) to control for transfection efficiency. The CAGA12 motif is present in TGF-β responsive genes (e.g., PAI-1 gene), so this vector is of general use for ligands that can signal through Smad2/3, including activin A. GDF11, and BMP9.
(§5) On day 1. A204 cells were transferred into one or more 48-well plates. On day 2, these cells were transfected with 10 μg pGL3(CAGA)12 or pGL3(CAGA)12(10 μg)+pRLCMV ([…]) and Fugene. On day 3, ligands diluted in medium containing 0.1% BSA were preincubated with ActRIIB-Fc polypeptides for 1 hr before addition to cells. Approximately six hour later, the cells were rinsed with PBS and lysed. Cell lysates were analyzed in a luciferase assay to determine the extent of Smad activation.
(§6) This assay was used to screen variant ActRIIB-Fc polypeptides for inhibitory effects on cell signaling by activin A, activin B. GDF8, GDF11. BMP9, and BMP10. Potencies of homodimeric Fc fusion polypeptides incorporating amino acid substitutions in the human ActRIIB extracellular domain were compared with that of an Fc fusion polypeptide comprising unmodified human ActRIIB extracellular domain, ActRIIB-G1Fc. For some variants tested, it was not possible to calculate an accurate IC50, but signs of inhibition in the slope of the curves were detectable. For these variants, an estimate was included of the order of magnitude of the relative IC50, i.e. >10 nM or >100 nM instead of a definite number. Such data points are indicated by a (*) in Table 3 below. For some variants tested, there was no detectable inhibition in the slope of the curves over the concentration range tested, which is indicated by “ND” in Table 4.
as §4, with “A,” for “A, activin B, GDF8,”, “GDF11,” for “GDF11, BMP9,”, “and BMP9.” for “and BMP10, in comparison to ActRIIB-G1Fc.”, “(Dennler el” for “(Dennler et”, “activin A,” for “activin A.”
(§7) On day 1, A-204 cells were transferred into one or more 48-well plates. On day 2, these cells were transfected with 10 μg pGL3(CAGA)12 or pGL3(CAGA)12(10 μg)+pRLCMV (1 μg) and Fugene. On day 3, ligands diluted in medium containing 0.1% BSA were preincubated with ActRIIB-Fc polypeptides for 1 hr before addition to cells. Approximately six hour later, the cells were rinsed with PBS and lysed. Cell lysates were analyzed in a luciferase assay to determine the extent of Smad activation.
(§8) This assay was used to screen variant ActRIIB-Fc polypeptides for inhibitory effects on cell signaling by activin A, GDF11, and BMP9. Potencies of homodimeric Fc fusion polypeptides incorporating amino acid substitutions in the human ActRIIB extracellular domain were compared with that of an Fc fusion polypeptide comprising unmodified human ActRIIB extracellular domain.

[6] = molecular target: T5, Activin A (Homo sapiens, UniProt P08476); assay: A204 cell-based pGL3(CAGA)12 reporter gene assay, signaling by activin A; conditions: A204 reporter gene assay
T5 sequence (P08476 311-426): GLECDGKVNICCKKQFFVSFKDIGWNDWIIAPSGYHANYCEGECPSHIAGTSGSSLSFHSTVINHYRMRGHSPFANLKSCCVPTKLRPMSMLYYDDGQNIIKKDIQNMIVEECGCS
Description: as §4, §5, §6
as §4, with “A,” for “A, activin B, GDF8,”, “GDF11,” for “GDF11, BMP9,”, “and BMP9.” for “and BMP10, in comparison to ActRIIB-G1Fc.”, “(Dennler el” for “(Dennler et”, “activin A,” for “activin A.”
as §7, §8

[7] = molecular target: T4, BMP9; assay: A204 cell-based pGL3(CAGA)12 reporter gene assay, signaling by BMP9; conditions: A204 reporter gene assay
Description: as §4, §5, §6
as §4, with “A,” for “A, activin B, GDF8,”, “GDF11,” for “GDF11, BMP9,”, “and BMP9.” for “and BMP10, in comparison to ActRIIB-G1Fc.”, “(Dennler el” for “(Dennler et”, “activin A,” for “activin A.”
as §7, §8

[8] = molecular target: T6, GDF11 (UniProt O95390 299-407); assay: cell-based or functional assay
T6 construct: also called Growth and differentiation factor-11; BMP11
T6 sequence (looked up): T3 sequence (O95390 299-407)

[9] = molecular target: T7, BMP9 (UniProt Q9UK05 320-429); assay: cell-based or functional assay
T7 sequence (looked up): T4 sequence (Q9UK05 320-429)

Row | Substance | affinity for activin B compared to unmodified ActRIIB-Fc (in words) [1] | GDF8 binding compared to unmodified ActRIIB-Fc (in words) [2] | GDF11 binding compared to unmodified ActRIIB-Fc (in words) [3] | binding to BMP9 compared to unmodified ActRIIB-Fc (in words) [4] | inhibition of GDF11 compared to fusion polypeptide with unmodified ActRIIB extracellular domain (in words) [5] | inhibition of activin A compared to fusion polypeptide with unmodified ActRIIB extracellular domain (in words) [6] | inhibition of BMP9 compared to fusion polypeptide with unmodified ActRIIB extracellular domain (in words) [7] | selectivity of antagonism (activin A and GDF11 over BMP9) compared to unmodified ActRIIB-Fc [7] | reduction in affinity for BMP9 compared with reduction in affinity for GDF11 or activin A [4] | IC50 (ng/ml), A204 CAGA12 luciferase reporter assay [8] [ng/mL] | IC50 (ng/ml), A204 CAGA12 luciferase reporter assay [9] [ng/mL] | also measured
1 | F82K-N83R: homodimeric ActRIIB-G1Fc fusion with F82K and N83R substitutions; mature SEQ ID NO: 332 | relatively high affinity for activin B | significant decrease in GDF8 and GDF11 binding | significant decrease in GDF8 and GDF11 binding | decrease in binding to BMP9 |  |  |  |  |  |  |  | 
2 | F82I-N83R: homodimeric ActRIIB-G1Fc fusion with F82I and N83R substitutions; mature SEQ ID NO: 278 | relatively high affinity for activin B | significant decrease in GDF8 and GDF11 binding | significant decrease in GDF8 and GDF11 binding | decrease in binding to BMP9 |  |  |  |  |  |  |  | 
3 | F82K: homodimeric ActRIIB-G1Fc fusion with F82K substitution; mature SEQ ID NO: 42 |  |  |  |  | essentially undiminished inhibition of activin A and GDF11 | essentially undiminished inhibition of activin A and GDF11 | less potent inhibition of BMP9 | more selective antagonists of activin A and GDF11 | reduce ActRIIB binding affinity for BMP9 more than they reduce ActRIIB affinity for activin A or GDF11 |  |  | reduction in affinity for BMP9 compared with reduction in affinity for GDF11 or activin A ([4]; listed as ActRIIB(F82K)-Fc): greater reduction in their affinity for BMP9 than for GDF11
4 | F82W/N83A (homodimeric ActRIIB-Fc construct) (Fc fusion) |  |  |  |  |  |  |  |  |  | 389 | 40000 | 
5 | F82T-N83R: homodimeric ActRIIB-G1Fc fusion with F82T and N83R substitutions; mature SEQ ID NO: 335 | relatively high affinity for activin B | significant decrease in GDF8 and GDF11 binding | significant decrease in GDF8 and GDF11 binding | decrease in binding to BMP9 |  |  |  |  |  |  |  | 
6 | K55A: homodimeric ActRIIB-G1Fc fusion with K55A substitution; mature SEQ ID NO: 33 |  |  |  |  | essentially undiminished inhibition of activin A and GDF11 | essentially undiminished inhibition of activin A and GDF11 | less potent inhibition of BMP9 | more selective antagonists of activin A and GDF11 | reduce ActRIIB binding affinity for BMP9 more than they reduce ActRIIB affinity for activin A or GDF11 |  |  | reduction in affinity for BMP9 compared with reduction in affinity for GDF11 or activin A ([4]; listed as ActRIIB(K55A)-Fc): greater reduction in their affinity for BMP9 than for GDF11
7 | K55E: homodimeric ActRIIB-G1Fc fusion with K55E substitution; mature SEQ ID NO: 36 |  |  |  |  | essentially undiminished inhibition of activin A and GDF11 | essentially undiminished inhibition of activin A and GDF11 | less potent inhibition of BMP9 | more selective antagonists of activin A and GDF11 | reduce ActRIIB binding affinity for BMP9 more than they reduce ActRIIB affinity for activin A or GDF11 |  |  | reduction in affinity for BMP9 compared with reduction in affinity for GDF11 or activin A ([4]; listed as ActRIIB(K55E)-Fc): greater reduction in their affinity for BMP9 than for GDF11
8 | R40A (homodimeric ActRIIB-Fc construct) (Fc fusion) |  |  |  |  |  |  |  |  |  | 591 | 1210 | 
9 | K74R (homodimeric ActRIIB-Fc construct) (Fc fusion) |  |  |  |  |  |  |  |  |  | 45 | 165 | 
